Data from patent US20100092457A1 (Chugai, published 2010).

T1: full-length human DSG3 (Desmoglein 3) protein (human, UniProt P32926 50-999)
T1 construct: Full-length protein constantly expressed on transfected cells (DSG3-CHO, DSG3-A549, DSG3-Ba/F3); no signal peptide limits are stated; also called hDSG3; PV antigen
T1 sequence: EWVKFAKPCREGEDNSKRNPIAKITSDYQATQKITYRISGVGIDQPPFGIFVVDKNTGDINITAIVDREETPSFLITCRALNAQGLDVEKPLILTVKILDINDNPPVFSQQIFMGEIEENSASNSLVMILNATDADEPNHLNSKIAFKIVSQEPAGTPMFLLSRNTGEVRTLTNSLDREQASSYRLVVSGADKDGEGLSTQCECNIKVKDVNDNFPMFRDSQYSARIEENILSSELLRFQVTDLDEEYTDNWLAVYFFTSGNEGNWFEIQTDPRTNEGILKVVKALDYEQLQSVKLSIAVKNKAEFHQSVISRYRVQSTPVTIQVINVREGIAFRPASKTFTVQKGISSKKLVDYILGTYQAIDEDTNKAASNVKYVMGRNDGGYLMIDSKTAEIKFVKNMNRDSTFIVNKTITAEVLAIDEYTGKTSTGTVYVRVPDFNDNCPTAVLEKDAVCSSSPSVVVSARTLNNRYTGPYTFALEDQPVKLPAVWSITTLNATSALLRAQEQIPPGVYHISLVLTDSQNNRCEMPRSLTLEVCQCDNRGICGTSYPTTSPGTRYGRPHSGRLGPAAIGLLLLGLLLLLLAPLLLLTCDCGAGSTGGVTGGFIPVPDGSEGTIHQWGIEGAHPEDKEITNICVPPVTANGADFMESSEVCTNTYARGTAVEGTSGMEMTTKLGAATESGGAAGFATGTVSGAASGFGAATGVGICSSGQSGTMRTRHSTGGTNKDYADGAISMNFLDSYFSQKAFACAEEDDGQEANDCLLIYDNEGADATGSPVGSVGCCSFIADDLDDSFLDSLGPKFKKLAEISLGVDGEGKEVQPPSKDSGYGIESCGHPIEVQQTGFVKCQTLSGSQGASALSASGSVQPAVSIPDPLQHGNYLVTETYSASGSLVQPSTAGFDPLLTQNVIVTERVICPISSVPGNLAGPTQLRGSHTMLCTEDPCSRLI

B1: anti-DSG3 monoclonal antibody DF151 (antibody)
heavy: EVQLQQSGPELVKPGASVKISCKASGYSFTAYYMHWVKQSPEKCLEWIGQINPSTGGTTYNQKFKAKATLTVDKSSSTAYMQLKSLTSEDSAVYYCARWGDSWGQGTTLTVSSAKTTPPSVYPLAPGCGDTTGSSVTLGCLVKGYFPESVTVTWNSGSLSSSVHTFPALLQSGLYTMSSSVTVPSSTWPSQTVTCSVAHPASSTTVDKKLEPSGPISTINPCPPCKECHKCPAPNLEGGPSVFIFPPNIKDVLMISLTPKVTCVVVDVSEDDPDVQISWFVNNVEVHTAQTQTHREDYNSTIRVVSALPIQHQDWMSGKEFKCKVNNKDLPSPIERTISKIKGLVRAPQVYILPPPAEQLSRKDVSLTCLVVGFNPGDISVEWTSNGHTEENYKDTAPVLDSDGSYFIYSKLDIKTSKWEKTDSFSCNVRHEGLKNYYLKKTISRSPGK
light: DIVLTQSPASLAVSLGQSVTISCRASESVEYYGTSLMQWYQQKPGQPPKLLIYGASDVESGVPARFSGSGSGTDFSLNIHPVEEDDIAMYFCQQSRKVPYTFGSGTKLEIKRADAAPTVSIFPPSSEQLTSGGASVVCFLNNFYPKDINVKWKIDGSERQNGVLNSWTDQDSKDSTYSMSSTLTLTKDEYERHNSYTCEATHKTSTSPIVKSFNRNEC
notes: Mouse IgG2b kappa from hybridoma
B2: anti-DSG3 monoclonal antibody DF366 (antibody)
heavy: EVQLQQSGPELVKPGASVKISCKASGYTFTDYNMDWVKQSHGESLEWIGYIYPNNGGSGYNQKFKSKATLTVDKSSSTAYMELHSLTSEDSAVYYCARRDSYYGFDMAWFAYWGQGTLVTVSAAKTTPPSVYPLAPGSAAQTNSMVTLGCLVKGYFPEPVTVTWNSGSLSSGVHTFPAVLQSDLYTLSSSVTVPSSTWPSQTVTCNVAHPASSTKVDKKIVPRDCGCKPCICTVPEVSSVFIFPPKPKDVLTITLTPKVTCVVVDISKDDPEVQFSWFVDDVEVHTAQTKPREEQFNSTFRSVSELPIMHQDWLNGKEFKCRVNSAAFPAPIEKTISKTKGRPKAPQVYTIPPPKEQMAKDKVSLTCMITDFFPEDITVEWQWNGQPAENYKNTQPIMDTDGSYFVYSKLNVQKSNWEAGNTFTCSVLHEGLHNHHTEKSLSHSPGK
light: DIQMTQSPASLSASVGETVTITCRPSENIYNNLAWYQQKQGKSPQLLVYVATNLAEGVPSRFSGSGSGTRFSLKINSLQPEDFGKYYCQHSYGTPWTFGGGTKLEIKRADAAPTVSIFPPSSEQLTSGGASVVCFLNNFYPKDINVKWKIDGSERQNGVLNSWTDQDSKDSTYSMSSTLTLTKDEYERHNSYTCEATHKTSTSPIVKSFNRNEC
notes: Mouse IgG1 kappa from hybridoma
B3: anti-DSG3 monoclonal antibody DF364 (antibody)
heavy: EVQLQQSGTVLARPGASVKMSCKASGYTFASYWIHWVKQRPGQGLEWIGSIYPGNSDTTYNQKFKGKAKLTVVTSASSAYMELSSLTNEDSAVYYCTEPTYYSYDDYYAMDYWGQGTSVTVSSAKTTPPSVYPLAPGSAAQTNSMVTLGCLVKGYFPEPVTVTWNSGSLSSGVHTFPAVLQSDLYTLSSSVTVPSSTWPSQTVTCNVAHPASSTKVDKKIVPRDCGCKPCICTVPEVSSVFIFPPKPKDVLTITLTPKVTCVVVDISKDDPEVQFSWFVDDVEVHTAQTKPREEQFNSTFRSVSELPIMHQDWLNGKEFKCRVNSAAFPAPIEKTISKTKGRPKAPQVYTIPPPKEQMAKDKVSLTCMITDFFPEDITVEWQWNGQPAENYKNTQPIMDTDGSYFVYSKLNVQKSNWEAGNTFTCSVLHEGLHNHHTEKSLSHSPGK
light: EIVLTQSPALMAASPGEKVTITCSVSSSISSSNLHWYQQKSGTSPKPWIYGTSNLASGVPVRFSGSGSGTSYSLTISTMEAEDAATYYCQQWSSYPLTFGAGTKLELKRADAAPTVSIFPPSSEQLTSGGASVVCFLNNFYPKDINVKWKIDGSERQNGVLNSWTDQDSKDSTYSMSSTLTLTKDEYERHNSYTCEATHKTSTSPIVKSFNRNEC
notes: as for B2
B4: DF366 mouse-human chimeric antibody (antibody)
heavy: not shown
light: DIQMTQSPASLSASVGETVTITCRPSENIYNNLAWYQQKQGKSPQLLVYVATNLAEGVPSRFSGSGSGTRFSLKINSLQPEDFGKYYCQHSYGTPWTFGGGTKLEIKRTVAAPSVFIFPPSDEQLKSGTASVVCLLNNFYPREAKVQWKVDNALQSGNSQESVTEQDSKDSTYSLSSTLTLSKADYEKHKVYACEVTHQGLSSPVTKSFNRGEC
notes: made in CHO DG44 cells; also called DF366c
B5: low-fucose DF366 mouse-human chimeric antibody (antibody, human IgG1, kappa)
heavy: not shown
light: DIQMTQSPASLSASVGETVTITCRPSENIYNNLAWYQQKQGKSPQLLVYVATNLAEGVPSRFSGSGSGTRFSLKINSLQPEDFGKYYCQHSYGTPWTFGGGTKLEIKRTVAAPSVFIFPPSDEQLKSGTASVVCLLNNFYPREAKVQWKVDNALQSGNSQESVTEQDSKDSTYSLSSTLTLSKADYEKHKVYACEVTHQGLSSPVTKSFNRGEC
modifications: low-fucose sugar chain (produced in YB2/0 cells)
notes: differs only in glycosylation (low fucose); also called YB-DF366c
B6: DF364 mouse-human chimeric antibody (antibody)
heavy: not shown
light: EIVLTQSPALMAASPGEKVTITCSVSSSISSSNLHWYQQKSGTSPKPWIYGTSNLASGVPVRFSGSGSGTSYSLTISTMEAEDAATYYCQQWSSYPLTFGAGTKLELKRTVAAPSVFIFPPSDEQLKSGTASVVCLLNNFYPREAKVQWKVDNALQSGNSQESVTEQDSKDSTYSLSSTLTLSKADYEKHKVYACEVTHQGLSSPVTKSFNRGEC
notes: made in CHO DG44 cells; also called DF364c
B7: low-fucose DF364 mouse-human chimeric antibody (antibody, human IgG1, kappa)
heavy: not shown
light: EIVLTQSPALMAASPGEKVTITCSVSSSISSSNLHWYQQKSGTSPKPWIYGTSNLASGVPVRFSGSGSGTSYSLTISTMEAEDAATYYCQQWSSYPLTFGAGTKLELKRTVAAPSVFIFPPSDEQLKSGTASVVCLLNNFYPREAKVQWKVDNALQSGNSQESVTEQDSKDSTYSLSSTLTLSKADYEKHKVYACEVTHQGLSSPVTKSFNRGEC
modifications: low-fucose sugar chain (produced in YB2/0 cells)
notes: differs only in glycosylation (low fucose); also called YB-DF364c
B8: mouse IgG2a chimeric DF366 antibody (antibody)
heavy: EVQLQQSGPELVKPGASVKISCKASGYTFTDYNMDWVKQSHGESLEWIGYIYPNNGGSGYNQKFKSKATLTVDKSSSTAYMELHSLTSEDSAVYYCARRDSYYGFDMAWFAYWGQGTLVTVSAAKTTAPSVYPLAPVCGDTTGSSVTLGCLVKGYFPEPVTLTWNSGSLSSGVHTFPAVLQSDLYTLSSSVTVTSSTWPSQSITCNVAHPASSTKVDKKIEPRGPTIKPCPPCKCPAPNLLGGPSVFIFPPKIKDVLMISLSPIVTCVVVDVSEDDPDVQISWFVNNVEVHTAQTQTHREDYNSTLRVVSALPIQHQDWMSGKEFKCKVNNKDLPAPIERTISKPKGSVRAPQVYVLPPPEEEMTKKQVTLTCMVTDFMPEDIYVEWTNNGKTELNYKNTEPVLDSDGSYFMYSKLRVEKKNWVERNSYSCSVVHEGLHNHHTTKSFSRTPGK
light: DIQMTQSPASLSASVGETVTITCRPSENIYNNLAWYQQKQGKSPQLLVYVATNLAEGVPSRFSGSGSGTRFSLKINSLQPEDFGKYYCQHSYGTPWTFGGGTKLEIKRADAAPTVSIFPPSSEQLTSGGASVVCFLNNFYPKDINVKWKIDGSERQNGVLNSWTDQDSKDSTYSMSSTLTLTKDEYERHNSYTCEATHKTSTSPIVKSFNRNEC
notes: made in CHO DG44 cells; also called DF366m
B9: DF151 mouse-human chimeric antibody (antibody)
heavy: not shown
light: DIVLTQSPASLAVSLGQSVTISCRASESVEYYGTSLMQWYQQKPGQPPKLLIYGASDVESGVPARFSGSGSGTDFSLNIHPVEEDDIAMYFCQQSRKVPYTFGSGTKLEIKRTVAAPSVFIFPPSDEQLKSGTASVVCLLNNFYPREAKVQWKVDNALQSGNSQESVTEQDSKDSTYSLSSTLTLSKADYEKHKVYACEVTHQGLSSPVTKSFNRGEC
notes: made in CHO DG44 cells; also called DF151c
B10: low-fucose DF151 mouse-human chimeric antibody (antibody, human IgG1, kappa)
heavy: not shown
light: DIVLTQSPASLAVSLGQSVTISCRASESVEYYGTSLMQWYQQKPGQPPKLLIYGASDVESGVPARFSGSGSGTDFSLNIHPVEEDDIAMYFCQQSRKVPYTFGSGTKLEIKRTVAAPSVFIFPPSDEQLKSGTASVVCLLNNFYPREAKVQWKVDNALQSGNSQESVTEQDSKDSTYSLSSTLTLSKADYEKHKVYACEVTHQGLSSPVTKSFNRGEC
modifications: low-fucose sugar chain (produced in YB2/0 cells)
notes: differs only in glycosylation (low fucose); also called YB-DF151c

Biological target: T1, full-length human DSG3 (Desmoglein 3) …
Experiment: hybridoma screening by flow cytometry on CHO cells expressing full-length human DSG3
Description: Next, RPMI1640 medium (Invitrogen) was added carefully to dilute PEG 1500, and then PEG 1500 was removed by centrifuging and removing the supernatant. The group of fused cells suspended in RPMI1640 containing 10% FBS was seeded into a 96-well culture plate at 100 μL/well. The following day, RPMI1640 containing 10% FBS, 1×HAT media supplement (SIGMA), and 0.5×BM-Condimed H1 Hybridoma cloning supplement (Roche Diagnostics) (hereinafter referred to as HAT medium) was added at 100 μL/well. On the second or third day, half of the culture solution was replaced with HAT medium, and the culture supernatant from the seventh day was used in the screening in which binding activity to the DSG3 molecule was used as an indicator. The screening was performed by flow cytometric analysis which detects binding to CHO cells that show constant expression of full-length human DSG3. Positive clones obtained by this analysis were monocloned by the limiting dilution method. Specifically, DF120, DF122, DF148, DF151, DF153, DF168, DF331, DF364, and DF366 were established as antibodies that specifically bind to DSG3.
Flow cytometry was used to evaluate the binding of the obtained antibodies to CHO cells that show constant expression of full-length human DSG3. The cells were suspended in FACS Buffer (1% FBS/PBS) at 5×10⁵ cells/mL and dispensed into Multiscreen-HV Filter Plates (Millipore), and the supernatant was removed from this cell suspension solution by centrifugation. After adding to the supernatant-free cells an FACS buffer containing anti-DSG3 monoclonal antibodies which have been diluted to a suitable concentration (3 μg/mL) in the FACS buffer, this was left to stand for 30 minutes on ice to let the cells react with the monoclonal antibodies. After removing the supernatant from this reaction solution by centrifugation, the cells were washed once with FACS buffer. Next, by suspending the cells in a FACS buffer containing FITC-labeled anti-mouse IgG antibody as the secondary antibody, the cells were reacted with the secondary antibody for 30 minutes on ice. […]

Binding result, binds:
B1
B2
B3

Biological target: T1, full-length human DSG3 (Desmoglein 3) …
Experiment: flow cytometry

Binding result, binds:
B4
B5
B6
B7
B8
B9
B10
